Data as given in patent WO2017208210A1.
Numbering of substitutions follows the chain as printed.

T1: recombinant hMCAM-His (human) (UniProt P43121)
T1 sequence: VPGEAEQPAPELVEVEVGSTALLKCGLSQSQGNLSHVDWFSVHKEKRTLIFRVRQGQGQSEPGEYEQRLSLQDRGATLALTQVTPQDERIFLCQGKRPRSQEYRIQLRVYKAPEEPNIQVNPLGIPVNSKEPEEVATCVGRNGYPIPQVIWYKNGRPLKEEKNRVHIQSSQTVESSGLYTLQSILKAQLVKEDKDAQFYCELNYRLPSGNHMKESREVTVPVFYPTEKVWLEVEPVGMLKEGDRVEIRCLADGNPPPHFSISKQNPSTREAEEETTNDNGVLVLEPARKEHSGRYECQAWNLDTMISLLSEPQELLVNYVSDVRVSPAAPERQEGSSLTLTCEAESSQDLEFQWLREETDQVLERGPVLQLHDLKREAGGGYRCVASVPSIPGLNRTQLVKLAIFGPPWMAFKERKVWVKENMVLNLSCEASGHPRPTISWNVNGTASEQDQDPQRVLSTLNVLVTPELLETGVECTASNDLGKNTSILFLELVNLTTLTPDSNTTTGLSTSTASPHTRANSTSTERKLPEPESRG

T2: human MCAM expressed on CHO cells transfected with the full length human MCAM gene (human) (UniProt P43121)
T2 sequence: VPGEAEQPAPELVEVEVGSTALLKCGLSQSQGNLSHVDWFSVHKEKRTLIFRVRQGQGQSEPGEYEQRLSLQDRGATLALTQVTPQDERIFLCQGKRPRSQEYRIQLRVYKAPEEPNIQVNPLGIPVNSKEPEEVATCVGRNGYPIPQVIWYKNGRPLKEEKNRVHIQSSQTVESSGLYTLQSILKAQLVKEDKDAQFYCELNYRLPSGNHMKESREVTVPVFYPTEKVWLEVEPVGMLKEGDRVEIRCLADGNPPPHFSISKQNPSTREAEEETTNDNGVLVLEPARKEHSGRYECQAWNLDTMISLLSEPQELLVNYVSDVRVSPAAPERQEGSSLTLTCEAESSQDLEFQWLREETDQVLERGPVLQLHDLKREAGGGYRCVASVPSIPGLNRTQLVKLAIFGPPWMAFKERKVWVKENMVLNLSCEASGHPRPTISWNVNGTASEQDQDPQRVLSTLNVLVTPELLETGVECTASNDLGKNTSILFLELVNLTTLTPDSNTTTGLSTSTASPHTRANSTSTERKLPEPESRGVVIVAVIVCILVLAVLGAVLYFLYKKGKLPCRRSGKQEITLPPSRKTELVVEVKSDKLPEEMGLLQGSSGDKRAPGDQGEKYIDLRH

B1: humanized 2120 antibody VH5VL3 (G-A N-deamidation mutant VH/conservative VL) (antibody, V domains shown)
VH: QVTLKESGPVLVKPTETLTLTCTVSGFSLTSNAVSWVRQPPGKALEWIAAISSGGTTYYNSAFKSRLTISRDTSKSQVVLTMTNMDPVDTATYYCARRYGYGWYFDFWGQGTLVTVSS
VL: DIQMTQSPSSLSASVGDRVTINCKASQNIYNSLAWYQQKPGKAPKVLIFNANSLQTGIPSRFSGSGSGTDFTLTISSLQPEDFATYYCQQFYSGYTFGQGTKLEIK
B2: PRX003 (humanized anti-MCAM antibody, human IgG1 kappa isotype) (antibody, V domains shown)
VH: B1 VH with Q1E
VL: B1 VL

Legend:
[1] = target: T1, recombinant hMCAM-His (human); assay: competitive ELISA on hMCAM-His against biotinylated rodent or chimeric antibody
[2] = target: T2, human MCAM expressed on CHO cells transfected with the full length human MCAM gene (human); assay: laminin/FACS assay, blocking of laminin 411 binding to hMCAM expressing CHO cells
[3] = target: chimpanzee MCAM on circulating T cells (chimpanzee); assay: FACS, chimpanzee whole blood in vitro

Row | Binder | fold reduction in apparent affinity against the rodent parent [1] | fold reduction in potency (laminin blocking) against the rodent parent [2] | concentration required to saturate MCAM [3]
1 | B1 | < 2 x | < 2 x | 
2 | B2 |  |  | 1 to 3 µg/mL
